Among the data in patent publication CN109897110A (SHENZHEN BGI LIFE SCIENCE RES INSTITUTE, dated 2019) are Kd, koff and kon values, retold here.

The target of this assay is T1, 人PCSK9抗原多肽 (前蛋白转化酶枯草溶菌素9, PCSK9) (human, UniProt Q8NBP7 31-692, limits assumed).
T1 construct: Expressed in CHO cells; also called PCSK9蛋白; Proprotein convertase subtilisin/kexin type 9
Briefly: ProteOn (SPR), PCSK9 immobilised on chip, nanobody dilution series as analyte.

T1 sequence (Q8NBP7 31-692 limits assumed): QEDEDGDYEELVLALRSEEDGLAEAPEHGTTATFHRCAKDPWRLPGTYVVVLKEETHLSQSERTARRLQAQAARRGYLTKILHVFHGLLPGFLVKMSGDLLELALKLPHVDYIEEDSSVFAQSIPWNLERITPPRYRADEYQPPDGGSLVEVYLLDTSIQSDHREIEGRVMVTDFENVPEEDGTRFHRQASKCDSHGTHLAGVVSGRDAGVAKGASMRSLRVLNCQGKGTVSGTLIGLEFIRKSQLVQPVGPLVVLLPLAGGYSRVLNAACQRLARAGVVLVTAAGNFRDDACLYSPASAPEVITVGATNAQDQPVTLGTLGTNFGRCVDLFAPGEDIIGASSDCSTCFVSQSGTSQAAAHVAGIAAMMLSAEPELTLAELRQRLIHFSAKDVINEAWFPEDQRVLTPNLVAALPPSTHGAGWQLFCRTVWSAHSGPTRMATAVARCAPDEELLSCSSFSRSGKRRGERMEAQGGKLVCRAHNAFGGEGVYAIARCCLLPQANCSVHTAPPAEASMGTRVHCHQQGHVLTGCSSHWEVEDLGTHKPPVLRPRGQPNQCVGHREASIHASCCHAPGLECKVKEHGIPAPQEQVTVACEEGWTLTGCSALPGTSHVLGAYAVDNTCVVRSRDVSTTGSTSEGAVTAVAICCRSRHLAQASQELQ

B1: PCSK9纳米抗体 (VHH)
VHH: ESGGGSVQAGGSLRLSCTVSGYTYSSNCMGWFRQAPGKEHEGVASIYIGGGSTYYADSVKGRFTISQDNAKNTVYLQMNSLKPEDTAMYYCAVGCQGLVDFGYWDQGTQVTVSS
notes: Expressed from pMECS in E. coli HB2151 and purified on a Ni column; also called PCSK9 Nb; PCSK9 nanobody; not shown: tags from the pMECS vector (HA tag detected with anti-HA antibody); purified on a
For orientation: Kd means the constant that tells how readily two partners part at equilibrium. The low end stands for a tighter complex, the high end for a looser complex. Usually koff stands for the rate constant with which the complex falls apart. The term kon denotes a measure of how fast the partners come together. A higher kon goes with faster complex formation. Turning to B1, binding was characterised by a dissociation constant (Kd) of 25 nM, the koff amounted to 0.000112 s⁻¹ and the kon stood at 4490 M⁻¹ s⁻¹.
